Test results published in the supplement of paper PMC5998384.

Experiments:
HeLa Kyoto [1] = test: solubility change mitosis vs G1/S (difference of NP-40 vs SDS log2 ratios) (log2 ratio difference); higher = more soluble in mitosis
HeLa Kyoto [2] = test: solubility in G1/S (NP-40 vs SDS abundance) (log2 ratio); higher = more soluble; details: cell cycle stage: G1/S
HeLa Kyoto [3] = test: melting temperature (median over replicates), in situ; higher = more thermally stable
HeLa Kyoto [4] = test: thermal stability score vs G1/S (z-score of summed log2 fold changes over temperatures); higher = more thermally stable than in G1/S
[5] = cell cycle stage: early G1 (4.5 h after nocodazole release)
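For melting temperature (median over replicates), in situ in this document: HeLa Kyoto cells synchronized by double thymidine or nocodazole block, proteins quantified by TMT10plex mass spectrometry, three independent biological replicates.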
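For solubility change mitosis vs G1/S (difference of NP-40 vs SDS log2 ratios) in this document: synchronized HeLa Kyoto cells (double thymidine block for G1/S, nocodazole release for mitosis), protein amounts in NP-40 versus SDS lysates quantified by mass spectrometry, three biological replicates.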
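For solubility in G1/S (NP-40 vs SDS abundance) in this document: HeLa Kyoto cells arrested at G1/S by double thymidine block, proteins quantified by TMT10plex mass spectrometry in mild NP-40 versus SDS extracts, three biological replicates.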
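For thermal stability score vs G1/S (z-score of summed log2 fold changes over temperatures) in this document: synchronized HeLa Kyoto cells, proteins quantified by TMT10plex mass spectrometry, three biological replicates, mitosis taken 0.5 h after nocodazole release, G1/S directly after double thymidine block.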

## MSSRKSKSNSLIHTECLSQVQRILRERFCRQSPHSNLFGVQVQYKHLSELLKRTALHGESNSVLIIGPRGSGKTMLINHALKELMEIEEVSENVLQVHLNGLLQINDKIALKEITRQLNLENVVGDKVFGSFAENLSFLLEALKKGDRTSSCPVIFILDEFDLFAHHKNQTLLYNLFDISQSAQTPIAVIGLTCRLDILELLEKRVKSRFSHRQIHLMNSFGFPQYVKIFKEQLSLPAEFPDKVFAEKWNENVQYLSEDRSVQEVLQKHFNISKNLRSLHMLLMLALNRVTASHPFMTAVDLMEASQLCSMDSKANIVHGLSVLEICLIIAMKHLNDIYEEEPFNFQMVYNEFQKFVQRKAHSVYNFEKPVVMKAFEHLQQLELIKPMERTSGNSQREYQLMKLLLDNTQIMNALQKYPNCPTDVRQWATSSLSWL [ORC4]
HeLa Kyoto [1]
  solubility change mitosis (log2): -0.248
HeLa Kyoto [2]
  solubility in G1/S (log2): 0.194
HeLa Kyoto [3]; cell cycle stage: G1/S
  melting temperature: 48.8 °C
HeLa Kyoto [3]; cell cycle stage: mitosis
  melting temperature: 49.6 °C
HeLa Kyoto [4]; [5]
  thermal stability score: 1.97
HeLa Kyoto [4]; cell cycle stage: mitosis
  thermal stability score: 2.38

## MATANFGKIQIGIYVEIKRSDGRIHQAMVTSLNEDNESVTVEWIENGDTKGKEIDLESIFSLNPDLVPDEEIEPSPETPPPPASSAKVNKIVKNRRTVASIKNDPPSRDNRVVGSARARPSQFPEQSSSAQQNGSVSDISPVQAAKKEFGPPSRRKSNCVKEVEKLQEKREKRRLQQQELREKRAQDVDATNPNYEIMCMIRDFRGSLDYRPLTTADPIDEHRICVCVRKRPLNKKETQMKDLDVITIPSKDVVMVHEPKQKVDLTRYLENQTFRFDYAFDDSAPNEMVYRFTARPLVETIFERGMATCFAYGQTGSGKTHTMGGDFSGKNQDCSKGIYALAARDVFLMLKKPNYKKLELQVYATFFEIYSGKVFDLLNRKTKLRVLEDGKQQVQVVGLQEREVKCVEDVLKLIDIGNSCRTSGQTSANAHSSRSHAVFQIILRRKGKLHGKFSLIDLAGNERGADTSSADRQTRLEGAEINKSLLALKECIRALGRNKPHTPFRASKLTQVLRDSFIGENSRTCMIATISPGMASCENTLNTLRYANRVKELTVDPTAAGDVRPIMHHPPNQIDDLETQWGVGSSPQRDDLKLLCEQNEEEVSPQLFTFHEAVSQMVEMEEQVVEDHRAVFQESIRWLEDEKALLEMTEEVDYDVDSYATQLEAILEQKIDILTELRDKVKSFRAALQEEEQASKQINPKRPRAL [KIF2A]
HeLa Kyoto [1]
  solubility change mitosis (log2): -0.0102
HeLa Kyoto [2]
  solubility in G1/S (log2): -0.149
HeLa Kyoto [3]; cell cycle stage: G1/S
  melting temperature: 50 °C
HeLa Kyoto [3]; cell cycle stage: mitosis
  melting temperature: 50.1 °C
HeLa Kyoto [4]; [5]
  thermal stability score: 1.7
HeLa Kyoto [4]; cell cycle stage: mitosis
  thermal stability score: 1.64

## MHDAFEPVPILEKLPLQIDCLAAWEEWLLVGTKQGHLLLYRIRKDVVPADVASPESGSCNRFEVTLEKSNKNFSKKIQQIHVVSQFKILVSLLENNIYVHDLLTFQQITTVSKAKGASLFTCDLQHTETGEEVLRMCVAVKKKLQLYFWKDREFHELQGDFSVPDVPKSMAWCENSICVGFKRDYYLIRVDGKGSIKELFPTGKQLEPLVAPLADGKVAVGQDDLTVVLNEEGICTQKCALNWTDIPVAMEHQPPYIIAVLPRYVEIRTFEPRLLVQSIELQRPRFITSGGSNIIYVASNHFVWRLIPVPMATQIQQLLQDKQFELALQLAEMKDDSDSEKQQQIHHIKNLYAFNLFCQKRFDESMQVFAKLGTDPTHVMGLYPDLLPTDYRKQLQYPNPLPVLSGAELEKAHLALIDYLTQKRSQLVKKLNDSDHQSSTSPLMEGTPTIKSKKKLLQIIDTTLLKCYLHTNVALVAPLLRLENNHCHIEESEHVLKKAHKYSELIILYEKKGLHEKALQVLVDQSKKANSPLKGHERTVQYLQHLGTENLHLIFSYSVWVLRDFPEDGLKIFTEDLPEVESLPRDRVLGFLIENFKGLAIPYLEHIIHVWEETGSRFHNCLIQLYCEKVQGLMKEYLLSFPAGKTPVPAGEEEGELGEYRQKLLMFLEISSYYDPGRLICDFPFDGLLEERALLLGRMGKHEQALFIYVHILKDTRMAEEYCHKHYDRNKDGNKDVYLSLLRMYLSPPSIHCLGPIKLELLEPKANLQAALQVLELHHSKLDTTKALNLLPANTQINDIRIFLEKVLEENAQKKRFNQVLKNLLHAEFLRVQEERILHQQVKCIITEEKVCMVCKKKIGNSAFARYPNGVVVHYFCSKEVNPADT [VPS39]
HeLa Kyoto [1]
  solubility change mitosis (log2): -0.261
HeLa Kyoto [2]
  solubility in G1/S (log2): -0.174
HeLa Kyoto [3]; cell cycle stage: G1/S
  melting temperature: 50.8 °C
HeLa Kyoto [3]; cell cycle stage: mitosis
  melting temperature: 50.1 °C
HeLa Kyoto [4]; [5]
  thermal stability score: 0.627
HeLa Kyoto [4]; cell cycle stage: mitosis
  thermal stability score: 0.376

## MEVAANCSLRVKRPLLDPRFEGYKLSLEPLPCYQLELDAAVAEVKLRDDQYTLEHMHAFGMYNYLHCDSWYQDSVYYIDTLGRIMNLTVMLDTALGKPREVFRLPTDLTACDNRLCASIHFSSSTWVTLSDGTGRLYVIGTGERGNSASEKWEIMFNEELGDPFIIIHSISLLNAEEHSIATLLLRIEKEELDMKGSGFYVSLEWVTISKKNQDNKKYEIIKRDILRGKSVPHYAAIEPDGNGLMIVSYKSLTFVQAGQDLEENMDEDISEKIKEPLYYWQQTEDDLTVTIRLPEDSTKEDIQIQFLPDHINIVLKDHQFLEGKLYSSIDHESSTWIIKESNSLEISLIKKNEGLTWPELVIGDKQGELIRDSAQCAAIAERLMHLTSEELNPNPDKEKPPCNAQELEECDIFFEESSSLCRFDGNTLKTTHVVNLGSNQYLFSVIVDPKEMPCFCLRHDVDALLWQPHSSKQDDMWEHIATFNALGYVQASKRDKKFFACAPNYSYAALCECLRRVFIYRQPAPMSTVLYNRKEGRQVGQVAKQQVASLETNDPILGFQATNERLFVLTTKNLFLIKVNTEN [NUDCD1]
HeLa Kyoto [1]
  solubility change mitosis (log2): -0.234
HeLa Kyoto [2]
  solubility in G1/S (log2): -0.0356
HeLa Kyoto [3]; cell cycle stage: G1/S
  melting temperature: 51.5 °C
HeLa Kyoto [3]; cell cycle stage: mitosis
  melting temperature: 52.4 °C
HeLa Kyoto [4]; [5]
  thermal stability score: 0.569
HeLa Kyoto [4]; cell cycle stage: mitosis
  thermal stability score: 0.543

## MANQVNGNAVQLKEEEEPMDTSSVTHTEHYKTLIEAGLPQKVAERLDEIFQTGLVAYVDLDERAIDALREFNEEGALSVLQQFKESDLSHVQNKSAFLCGVMKTYRQREKQGSKVQESTKGPDEAKIKALLERTGYTLDVTTGQRKYGGPPPDSVYSGVQPGIGTEVFVGKIPRDLYEDELVPLFEKAGPIWDLRLMMDPLSGQNRGYAFITFCGKEAAQEAVKLCDSYEIRPGKHLGVCISVANNRLFVGSIPKNKTKENILEEFSKVTEGLVDVILYHQPDDKKKNRGFCFLEYEDHKSAAQARRRLMSGKVKVWGNVVTVEWADPVEEPDPEVMAKVKVLFVRNLATTVTEEILEKSFSEFGKLERVKKLKDYAFVHFEDRGAAVKAMDEMNGKEIEGEEIEIVLAKPPDKKRKERQAARQASRSTAYEDYYYHPPPRMPPPIRGRGRGGGRGGYGYPPDYYGYEDYYDDYYGYDYHDYRGGYEDPYYGYDDGYAVRGRGGGRGGRGAPPPPRGRGAPPPRGRAGYSQRGAPLGPPRGSRGGRGGPAQQQRGRGSRGSRGNRGGNVGGKRKADGYNQPDSKRRQTNNQQNWGSQPIAQQPLQQGGDYSGNYGYNNDNQEFYQDTYGQQWK [HNRNPR]
HeLa Kyoto [1]
  solubility change mitosis (log2): 0.234
HeLa Kyoto [2]
  solubility in G1/S (log2): -0.12
HeLa Kyoto [3]; cell cycle stage: G1/S
  melting temperature: 47.8 °C
HeLa Kyoto [3]; cell cycle stage: mitosis
  melting temperature: 49.4 °C
HeLa Kyoto [4]; [5]
  thermal stability score: 2.99
HeLa Kyoto [4]; cell cycle stage: mitosis
  thermal stability score: 8.2
